Settings: Aspergillus oryzae (strain ATCC 42149 / RIB 40), Thermal, whole UniProt chain shown
[1] = pH 1.1, DSC, glycine-HCl 0.1 M/0.1 M, NaCl 0.1 M, reversible: yes(77%)
[2] = pH 1.5, DSC, glycine-HCl 0.1 M/0.1 M, NaCl 0.1 M, reversible: yes(99%)
[3] = pH 2, DSC, glycine-HCl 0.1 M/0.1 M, NaCl 0.1 M, reversible: yes(80%)
[4] = pH 3, DSC, glycine-HCl 0.1 M/0.1 M, NaCl 0.1 M, reversible: yes(80%)
[5] = pH 7, DSC, None, reversible: yes(26%)

B1: Guanyl-specific ribonuclease T1 wild type, P00651 (protein)
chain: MMYSKLLTLTTLLLPTALALPSLVERACDYTCGSNCYSSSDVSTAQAAGYQLHEDGETVGSNSYPHKYNNYEGFDFSVSSPYYEWPILSSGDVYSGGSPGADRVVFNENNQLAGVITHTGASGNNFVECT
Tm (pH 1.1, Absorbance, glycine-HCl 0.1 M/0.1 M, NaCl 0.1 M, reversible: yes(77%)): 25.9 °C | Tm [1]: 28.2 °C | unfolding enthalpy (calorimetric) [1]: 43.3 kcal/mol | unfolding enthalpy (van 't Hoff) [1]: 55.7 kcal/mol | Tm [2]: 32.3 °C | unfolding enthalpy (calorimetric) [2]: 47.6 kcal/mol | unfolding enthalpy (van 't Hoff) [2]: 60.5 kcal/mol | Tm (pH 2, Absorbance, glycine-HCl 0.1 M/0.1 M, NaCl 0.1 M, reversible: yes(80%)): 33 °C | Tm [3]: 37 °C | unfolding enthalpy (calorimetric) [3]: 68.9 kcal/mol | unfolding enthalpy (van 't Hoff) [3]: 66.3 kcal/mol | Tm (pH 3, Absorbance, glycine-HCl 0.1 M/0.1 M, NaCl 0.1 M, reversible: yes(80%)): 46.1 °C | Tm [4]: 50.2 °C | unfolding enthalpy (calorimetric) [4]: 95.7 kcal/mol | unfolding enthalpy (van 't Hoff) [4]: 93.1 kcal/mol | Tm (pH 3.5, Absorbance, glycine-HCl 0.1 M/0.1 M, NaCl 0.1 M, reversible: yes(73%)): 52.7 °C | Tm (pH 7, Absorbance, None, reversible: yes(26%)): 62.8 °C | Tm [5]: 64.4 °C | unfolding enthalpy (calorimetric) [5]: 123 kcal/mol | unfolding enthalpy (van 't Hoff) [5]: 116 kcal/mol

— FireProtDB (doi:10.1110/ps.8.4.832)
